Measurements taken from the supplement of paper PMC5998384.

Legend:
HeLa Kyoto [1] = test: thermal stability score vs G1/S (z-score of summed log2 fold changes over temperatures); higher = more thermally stable than in G1/S
HeLa Kyoto [2] = test: solubility change mitosis vs G1/S (difference of NP-40 vs SDS log2 ratios) (log2 ratio difference); higher = more soluble in mitosis
HeLa Kyoto [3] = test: solubility in G1/S (NP-40 vs SDS abundance) (log2 ratio); higher = more soluble; details: cell cycle stage: G1/S
HeLa Kyoto [4] = test: melting temperature (median over replicates), in situ; higher = more thermally stable
[5] = cell cycle stage: early G1 (4.5 h after nocodazole release)
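Wherever melting temperature (median over replicates), in situ is given: HeLa Kyoto cells synchronized by double thymidine or nocodazole block, proteins quantified by TMT10plex mass spectrometry, three independent biological replicates.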
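Wherever solubility change mitosis vs G1/S (difference of NP-40 vs SDS log2 ratios) is given: synchronized HeLa Kyoto cells (double thymidine block for G1/S, nocodazole release for mitosis), protein amounts in NP-40 versus SDS lysates quantified by mass spectrometry, three biological replicates.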
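Wherever solubility in G1/S (NP-40 vs SDS abundance) is given: HeLa Kyoto cells arrested at G1/S by double thymidine block, proteins quantified by TMT10plex mass spectrometry in mild NP-40 versus SDS extracts, three biological replicates.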
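Wherever thermal stability score vs G1/S (z-score of summed log2 fold changes over temperatures) is given: synchronized HeLa Kyoto cells, proteins quantified by TMT10plex mass spectrometry, three biological replicates, mitosis taken 0.5 h after nocodazole release, G1/S directly after double thymidine block.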

In the case of “MNHLNVLAKALYDNVAESPDELSFRKGDIMTVLEQDTQGLDGWWLCSLHGRQGIVPGNRLKILVGMYDKKPAGPGPGPPATPAQPQPGLHAPAPPASQYTPMLPNTYQPQPDSVYLVPTPSKAQQGLYQVPGPSPQFQSPPAKQTSTFSKQTPHHPFPSPATDLYQVPPGPGGPAQDIYQVPPSAGMGHDIYQVPPSMDTRSWEGTKPPAKVVVPTRVGQGYVYEAAQPEQDEYDIPRHLLAPGPQDIYDVPPVRGLLPSQYGQEVYDTPPMAVKGPNGRDPLLEVYDVPPSVEKGLPPSNHHAVYDVPPSVSKDVPDGPLLREETYDVPPAFAKAKPFDPARTPLVLAAPPPDSPPAEDVYDVPPPAPDLYDVPPGLRRPGPGTLYDVPRERVLPPEVADGGVVDSGVYAVPPPAEREAPAEGKRLSASSTGSTRSSQSASSLEVAGPGREPLELEVAVEALARLQQGVSATVAHLLDLAGSAGATGSWRSPSEPQEPLVQDLQAAVAAVQSAVHELLEFARSAVGNAAHTSDRALHAKLSRQLQKMEDVHQTLVAHGQALDAGRGGSGATLEDLDRLVACSRAVPEDAKQLASFLHGNASLLFRRTKATAPGPEGGGTLHPNPTDKTSSIQSRPLPSPPKFTSQDSPDGQYENSEGGWMEDYDYVHLQGKEEFEKTQKELLEKGSITRQGKSQLELQQLKQFERLEQEVSRPIDHDLANWTPAQPLAPGRTGGLGPSDRQLLLFYLEQCEANLTTLTNAVDAFFTAVATNQPPKIFVAHSKFVILSAHKLVFIGDTLSRQAKAADVRSQVTHYSNLLCDLLRGIVATTKAAALQYPSPSAAQDMVERVKELGHSTQQFRRVLGQLAAA [BCAR1]”, the thermal stability score (HeLa Kyoto [1]; [5]) was 0.46, the thermal stability score (HeLa Kyoto [1]; cell cycle stage: mitosis) was 2.67 and the “solubility change mitosis (log2)” value (HeLa Kyoto [2]) was 0.0584. For the same sequence, the “solubility in G1/S (log2)” value (HeLa Kyoto [3]) was 0.471, the melting temperature (HeLa Kyoto [4]; cell cycle stage: G1/S) was 49.1 °C and the melting temperature (HeLa Kyoto [4]; cell cycle stage: mitosis) was 49.4 °C.
In the case of “MNIDDKLEGLFLKCGGIDEMQSSRTMVVMGGVSGQSTVSGELQDSVLQDRSMPHQEILAADEVLQESEMRQQDMISHDELMVHEETVKNDEEQMETHERLPQGLQYALNVPISVKQEITFTDVSEQLMRDKKQIREPVDLQKKKKRKQRSPAKILTINEDGSLGLKTPKSHVCEHCNAAFRTNYHLQRHVFIHTGEKPFQCSQCDMRFIQKYLLQRHEKIHTGEKPFRCDECGMRFIQKYHMERHKRTHSGEKPYQCEYCLQYFSRTDRVLKHKRMCHENHDKKLNRCAIKGGLLTSEEDSGFSTSPKDNSLPKKKRQKTEKKSSGMDKESALDKSDLKKDKNDYLPLYSSSTKVKDEYMVAEYAVEMPHSSVGGSHLEDASGEIHPPKLVLKKINSKRSLKQPLEQNQTISPLSTYEESKVSKYAFELVDKQALLDSEGNADIDQVDNLQEGPSKPVHSSTNYDDAMQFLKKKRYLQAASNNSREYALNVGTIASQPSVTQAAVASVIDESTTASILESQALNVEIKSNHDKNVIPDEVLQTLLDHYSHKANGQHEISFSVADTEVTSSISINSSEVPEVTPSENVGSSSQASSSDKANMLQEYSKFLQQALDRTSQNDAYLNSPSLNFVTDNQTLPNQPAFSSIDKQVYATMPINSFRSGMNSPLRTTPDKSHFGLIVGDSQHSFPFSGDETNHASATSTQDFLDQVTSQKKAEAQPVHQAYQMSSFEQPFRAPYHGSRAGIATQFSTANGQVNLRGPGTSAEFSEFPLVNVNDNRAGMTSSPDATTGQTFG [ZNF148]”, the thermal stability score (HeLa Kyoto [1]; [5]) was 1.13, the thermal stability score (HeLa Kyoto [1]; cell cycle stage: mitosis) was -1.33 and the “solubility change mitosis (log2)” value (HeLa Kyoto [2]) was 0.123. The “solubility in G1/S (log2)” value (HeLa Kyoto [3]) was -0.236, the melting temperature (HeLa Kyoto [4]; cell cycle stage: G1/S) was 51.6 °C and the melting temperature (HeLa Kyoto [4]; cell cycle stage: mitosis) was 51.1 °C.
In the case of “MNIMDFNVKKLAADAGTFLSRAVQFTEEKLGQAEKTELDAHLENLLSKAECTKIWTEKIMKQTEVLLQPNPNARIEEFVYEKLDRKAPSRINNPELLGQYMIDAGTEFGPGTAYGNALIKCGETQKRIGTADRELIQTSALNFLTPLRNFIEGDYKTIAKERKLLQNKRLDLDAAKTRLKKAKAAETRNSSEQELRITQSEFDRQAEITRLLLEGISSTHAHHLRCLNDFVEAQMTYYAQCYQYMLDLQKQLGSFPSNYLSNNNQTSVTPVPSVLPNAIGSSAMASTSGLVITSPSNLSDLKECSGSRKARVLYDYDAANSTELSLLADEVITVFSVVGMDSDWLMGERGNQKGKVPITYLELLN [SH3GLB1]”, the thermal stability score (HeLa Kyoto [1]; [5]) was 1.13, the thermal stability score (HeLa Kyoto [1]; cell cycle stage: mitosis) was 2.44 and the “solubility change mitosis (log2)” value (HeLa Kyoto [2]) was 0.00172. For the same sequence, the “solubility in G1/S (log2)” value (HeLa Kyoto [3]) was 0.531, the melting temperature (HeLa Kyoto [4]; cell cycle stage: G1/S) was 48.1 °C and the melting temperature (HeLa Kyoto [4]; cell cycle stage: mitosis) was 48.7 °C.
With “MNKHQKPVLTGQRFKTRKRDEKEKFEPTVFRDTLVQGLNEAGDDLEAVAKFLDSTGSRLDYRRYADTLFDILVAGSMLAPGGTRIDDGDKTKMTNHCVFSANEDHETIRNYAQVFNKLIRRYKYLEKAFEDEMKKLLLFLKAFSETEQTKLAMLSGILLGNGTLPATILTSLFTDSLVKEGIAASFAVKLFKAWMAEKDANSVTSSLRKANLDKRLLELFPVNRQSVDHFAKYFTDAGLKELSDFLRVQQSLGTRKELQKELQERLSQECPIKEVVLYVKEEMKRNDLPETAVIGLLWTCIMNAVEWNKKEELVAEQALKHLKQYAPLLAVFSSQGQSELILLQKVQEYCYDNIHFMKAFQKIVVLFYKADVLSEEAILKWYKEAHVAKGKSVFLDQMKKFVEWLQNAEEESESEGEEN [BZW2]” the thermal stability score (HeLa Kyoto [1]; [5]) was 2.74, the thermal stability score (HeLa Kyoto [1]; cell cycle stage: mitosis) was 3.19 and the “solubility change mitosis (log2)” value (HeLa Kyoto [2]) was -0.11. For the same sequence, the “solubility in G1/S (log2)” value (HeLa Kyoto [3]) was 0.446, the melting temperature (HeLa Kyoto [4]; cell cycle stage: G1/S) was 51.3 °C and the melting temperature (HeLa Kyoto [4]; cell cycle stage: mitosis) was 50.1 °C.
